# T1: Pfu Y33A FEN1 (Pyrococcus furiosus, UniProt O93634 SEQ:1-340, Y33A)
# T1 sequence: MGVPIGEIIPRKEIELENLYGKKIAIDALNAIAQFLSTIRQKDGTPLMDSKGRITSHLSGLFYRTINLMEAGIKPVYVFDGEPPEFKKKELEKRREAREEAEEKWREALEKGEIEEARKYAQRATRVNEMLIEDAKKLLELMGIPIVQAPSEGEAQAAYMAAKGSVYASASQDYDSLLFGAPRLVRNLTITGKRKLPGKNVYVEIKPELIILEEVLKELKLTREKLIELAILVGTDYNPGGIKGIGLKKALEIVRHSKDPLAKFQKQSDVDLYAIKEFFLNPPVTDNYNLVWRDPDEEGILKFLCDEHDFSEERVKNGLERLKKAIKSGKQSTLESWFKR
# T2: Pfu Y33F FEN1 (Pyrococcus furiosus, UniProt O93634 SEQ:1-340, Y33F)
# T2 sequence: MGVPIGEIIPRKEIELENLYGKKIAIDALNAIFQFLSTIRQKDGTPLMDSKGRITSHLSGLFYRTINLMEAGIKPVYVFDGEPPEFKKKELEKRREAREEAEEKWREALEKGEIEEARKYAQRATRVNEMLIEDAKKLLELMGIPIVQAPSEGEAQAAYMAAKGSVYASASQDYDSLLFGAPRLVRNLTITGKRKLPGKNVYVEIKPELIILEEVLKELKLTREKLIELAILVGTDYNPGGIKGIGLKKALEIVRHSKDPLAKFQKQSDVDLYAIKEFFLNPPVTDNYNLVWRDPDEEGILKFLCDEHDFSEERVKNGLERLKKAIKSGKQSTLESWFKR
# Assays:
# Pfu Y33A FEN1 = target: T1, Pfu Y33A FEN1; experiment: cleavage_in_vitro; rate vs Pfu FEN1; details: label: 5'-biotin target; 5'-TET probe; hairpin target-INVADER with overlapping probe flap
# Experimental: (§1) For the evaluation of chimeric enzymes, standard tests were performed to measure the performance and specificity of the enzymes. […] 10 μl reactions are run at 59 C for between 5 to 60 minutes depending on the enzyme. Reactions are stopped by the addition of 10 μl of 95% formamide, 0.02% methyl violet. 1 μl of the mixture is run on a denaturing 20% acrylamide gel and electrophoresed for 15 minutes or until good separation is achieved between cleaved and uncleaved probe. The gels are scanned using an FMBIO fluorescent gel scanner and the bands are quantified with FMBIOAnalysis software. Cleavage rates are determined from the percent probe cleaved. Cleavage rate for the INVADER substrate is defined as the number of probe molecules cleaved per target molecule per minute. In Table 5, below, the cleavage rates for the mutant enzymes are compared to the cleavage rates for unmodified Pfu FEN1 enzyme on the INVADER assay and X-structure substrates.
# (§2) The X-structure substrate is used to determine the amount of background cleavage an enzyme will carry out in an INVADER reaction. It mimics the structure created by uncut primary probe and secondary FRET cassette in the INVADER squared reaction. […] 10 μl reactions are run at 59 C for between 3 to 30 minutes depending on the enzyme. Reactions are stopped by the addition of 10 μl of 95% formamide, 0.02% methyl violet. 1 μl of the mixture is run on a denaturing 20% acrylamide gel and electophoresed for 15 minutes or until good separation is achieved between cleaved and uncleaved probe. The gels are scanned using an FMBIO fluorescent gel scanner and the bands are quantified with FMBIOAnalysis software. Cleavage rates are determined from the percent probe cleaved.
# Pfu Y33F FEN1 = target: T2, Pfu Y33F FEN1; experiment: cleavage_in_vitro; rate vs Pfu FEN1; details: label: 5'-biotin target; 5'-TET probe; hairpin target-INVADER with overlapping probe flap
# Experimental: as §1, §2
binder,measurement,setting,value
INVADER substrate 594-12-1/203-91-1 (structured_DNA) DNA 1: TTTTTCACGGCAGTTGGTGCGCCTCGGAACGAGGCGCACA DNA 2: TTTTCAACTGCCGTGA,cleavage rate,Pfu Y33A FEN1,0.05
same,cleavage rate,Pfu Y33F FEN1,0.96

# — patent US20050048527, “Endonuclease-substrate complexes” (Third Wave Technologies, Inc., published 2005)
